Measured values published in the nanobody polyreactivity screen of Harvey et al. (2022).

Assay: yeast display, Sf9 membrane polyspecificity reagent, FACS + sequencing; frameworks hold sequencing errors
In short: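 A nanobody's polyreactivity label depends on the gate it was sorted from. Yeast display cells were stained with 10% biotinylated, detergent-solubilized Sf9 membrane reagent for 1 hour at 4 °C, enriched on streptavidin microbeads and sorted by FACS. The low and high (top ~1%) gates were set on anti-HA fluorescence for expression and streptavidin fluorescence for reagent binding.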

Row | Sequence | polyreactivity (PSR sort gate)
1 | QVQLVESGGGLVQAGGSLRLSCAASGRIFSEYAMGWYRQAPGKERELVAAITRRGGSTYYADSVKGRFTISRDNAKNTVYLQMNSLKPEDTAVYYCNALLTGGYQDSYPDDYWGQGTQVTVSS | high polyreactivity
2 | QVQLVESGGGLVQAGGSLRLSCAASGRIFSFNAMGWYRQAPGKERELVAGITDSGGSTYYADSVKGRFTISRDNAKNTVYSQMNSLKPEDTAVYYCNAEWPYSRVRDYFYAYDYWGQGTQVTVSS | low polyreactivity
3 | QVQLVESGGGLVQAGGSLRLSCAASGRIFSFNAMGWYRQAPGKERELVATIRTDGTTNYADSVKGRFTISRDNAKNTVYLQMNSLKPEDSAVYYCATDSGWSTYDYWGQGTQVTVSS | high polyreactivity
4 | QVQLVESGGGLVQAGGSLRLSCAASGRIFSFYSMGWYRQAPAKERELVATISKRAGSTYYADSVKGRFTISRDNAKNTVYLQMNSLKPEDTAVYYCAARKWYYASSRWRDYWGQGTQVTVSS | high polyreactivity
5 | QVQLVESGGGLVQAGGSLRLSCAASGRIFSFYTKGWYRQEPGKERHLVAANSGSGGSTYYADSVKGRFTISRDNAKNTVYLQMISLKPEDTEFYYCAAGYGFRYYLYDYWGQGTQVTVSS | high polyreactivity
6 | QVQLVESGGGLVQAGGSLRLSCAASGRIFSFYTMGWYRQAPGKERELVAAISSGGRTYYADSVKGRFTISRDNEKNTVYLQMNSLKPEDTAVYYCAAGSHYAFYYWGQGTQVTVSS | high polyreactivity
7 | QVQLVESGGGLVQAGGSLRLSCAASGRIFSGNAMGWYRQAPGKERELVAAISRGGSTDYADSVKGRFTISRDNAMNTVYLQMNSLKPEDTAVYYCAARVNGKRRRYDYWGQGTQVTVSS | high polyreactivity
8 | QVQLVESGGGLVQAGGSLRLSCAASGRIFSGNAMGWYRQAPGKERELVAAITWSGSSTFYADSVKGRFTISRDNAKNTVYLQMNSLKPEDTAVYYCAVDSSSPVRPHTDEDYWGQGTQVTVSS | low polyreactivity
9 | QVQLVESGGGLVQAGGSLRLSCAASGRIFSGYAMGWYRQAPGKERELVAAITSGGSTNYADSVKGRFTISRDNAKNTVYLQMNSLKPEDTAVYYCAADSREVSTTAYYYWGQRTQVTVSS | low polyreactivity
10 | QVQLVESGGGLVQAGGSLRLSCAASGRIFSGYAMGWYRQAPGKERELVATITSGGGTYYADSVKGRFTISRDNAKNTVYLQMNSLKPEDTAVYYCNAEKKGSFRKYNYWGQGTQVTVSS | low polyreactivity
11 | QVQLVESGGGLVQAGGSLRLSCAASGRIFSINAMGWYRQAPGKERELVAAITWSGGSTYYADSVKGRFTISRDNAKNTVYLQMNILKPEDTAVYYCAARLPWYIPTPSYRIAGGNYWGQGTQVTVSS | low polyreactivity
12 | QVQLVESGGGLVQAGGSLRLSCAASGRIFSINTMGWYRQAPGKERELVAAISVSGGRTYYADSVKGRFTISRENAKKSVYVQMNSLKPEVTAGYYCGAYGTTRMDYWGQGTQVTVSS | high polyreactivity
13 | QVQLVESGGGLVQAGGSLRLSCAASGRIFSIYAMGWYRQAPGKERELVAAIRSVGDTNYADSVKGRFTISRDNAKNTVYLQMNSLNPEDTAVYYCAAGTSDGGYHYDFWGQGSQVTVSS | high polyreactivity
14 | QVQLVESGGGLVQAGGSLRLSCAASGRIFSIYAMGWYRQAPGKERELVAAISSRGGSTYYADSVKGRFTISRDNAKNTVYLQMNSLKPEDTAVYYCNAVSWEGYDFDYWGQGTQVTVSS | high polyreactivity
15 | QVQLVESGGGLVQAGGSLRLSCAASGRIFSIYAMGWYRQAPGKERELVAAITRGGRTNYADSVKGRFTISRDNAKNTVYLQMNSLKPEDTAVYYCAARRIDGVVKPYDYWGQGTQVTVSS | low polyreactivity
16 | QVQLVESGGGLVQAGGSLRLSCAASGRIFSKNAMGWYRQAPGKEMEFVATISYGDGSTYYADSVKGRFTISRDNAKNTVYLQMNSLKPEDTAVYYCAATIGHNGFDYWGQGTQVTVSS | low polyreactivity
17 | QVQLVESGGGLVQAGGSLRLSCAASGRIFSKNAMGWYRQAPGKVRELVAAISYITGSTYADSVKGRFKISRDNAKNTDYLQMNSLKPEYTAVYYCAASSTWYGYYIYVFRAYDYWGQGTQLTVSS | low polyreactivity
18 | QVQLVESGGGLVQAGGSLRLSCAASGRIFSKYGMGWYRQAPGKETEFVAAISGSGTNTYYADSVKGRFTISRDNAKNTVYLQMNSLKPEDTAVYYCAKRKSVRSTPSYEYWGQGTQVTVSS | high polyreactivity
19 | QVQLVESGGGLVQAGGSLRLSCAASGRIFSLYTMGWYRQAPGKERELVATINRSSVSTRYADSVKGRFTISRDNAKNTGYLQMNSLKPEDTAVYYCAAQRSTRYPLYYWGQGTQVTVSS | high polyreactivity
20 | QVQLVESGGGLVQAGGSLRLSCAASGRIFSLYTMGWYRQAPGKERELVATISIGGSTNYADSVKGRFTISRDNAKNTVYLQMNSLKPEDTAVYYCATDGSIGYNDRYTNDFDYWGQGTQVTVSS | low polyreactivity
21 | QVQLVESGGGLVQAGGSLRLSCAASGRIFSNNAMGWYRQAPGKERELVAAISSSGSTYYADSVKGRFTISRDNAKNTVYLQINSLKPEDTAVYYCAVVYGYPYLRGYVFGFNYWGQGTQVTVSS | low polyreactivity
22 | QVQLVESGGGLVQAGGSLRLSCAASGRIFSNNAMGWYRQAPGKERELVAASNRSGDGTYYADSVKGRFTSSRDHAKNTVYLQMNSLKPEDTAVYYCAVRYYWGYTSYGYWGQGTQVTVSS | high polyreactivity

Row | Sequence | polyreactivity (PSR sort gate)
23 | QVQLVESGGGLVQAGGSLRLSCAASGRIFSNNDMGWYRQAAGKERELVAAISKNGGRTYYADSVKGRFTISRDNAKNTVYLQMNSLKPEDTAVYYCAAPVKPVTGYYPYDYWGQGTQVTVSS | high polyreactivity
24 | QVQLVESGGGLVQAGGSLRLSCAASGRIFSPYAMGWYRQAPGKERELVAAITSSGGSTYYADSVKGRFTISRDNAKNTVYLQMNSLKPEDTAVYYCNARRGRYTPSVNYWGQGTQVTVSS | high polyreactivity
25 | QVQLVESGGGLVQAGGSLRLSCAASGRIFSPYVMGWYRQAPGKERELVAAITGSGGSTYYADSVKGRFTISRDNAKKTVYLQMNSLKPEDTAVYYCAVVSRTTAMDYRGQGTQVTVSS | high polyreactivity
26 | QVQLVESGGGLVQAGGSLRLSCAASGRIFSQYAMGWYRQAPGKEREFVASISRSGGRTYYADSVKGRFTISRDNAKNTVYLQMNSLKPEDTAVYYCAARAETRYYTYNYWGQGTQVTVSS | high polyreactivity
27 | QVQLVESGGGLVQAGGSLRLSCAASGRIFSRNAMGSYRQAPGKERELVAAITSGGSTYYADYVKGRFTISSDNAKNTVYLQLNSLKPEDTAVYTVKILRYDYWGQGTQVTVSS | high polyreactivity
28 | QVQLVESGGGLVQAGGSLRLSCAASGRIFSRNAMGWYRQAPGKERELVAAISRSGTSTYYADSVKGRFTISRDNAKNTVYLQMNSLKPEDTAVYYCAAYPYYDRDYWGQGTQVTVSS | low polyreactivity
29 | QVQLVESGGGLVQAGGSLRLSCAASGRIFSRYAMGLYRQAPGKERELVAAISWSGGSTYYADSVKGRFTISRDNAKNTVYLQMNSLNTEDTAVYYCAPPIKGSDSKYGYWGQCTQVTVSS | high polyreactivity
30 | QVQLVESGGGLVQAGGSLRLSCAASGRIFSRYAMGWYRQAPGKERELVAAISRSGGSTYYADSVKGRFTISRDNAKNTVYLQMNSLKPEDTAVYYCAARNVFSYPPGSYYYWGQGTQVTVSS | high polyreactivity
31 | QVQLVESGGGLVQAGGSLRLSCAASGRIFSRYAMGWYRQAPGKERELVAAISWSGGSTYYADSVKGRFTISRDNAKNTVYLQINSLKPEDTAVYYCAAKRQYTEYNYWGQGTQVTVSS | high polyreactivity
32 | QVQLVESGGGLVQAGGSLRLSCAASGRIFSRYAMGWYRQAPGKERELVAAITQSGTSTYYADSVKGRFTISRDNAKNTVYLQMNSLKPEDTAVYYCNAYRQYRYDYWGQGTQVTVSS | low polyreactivity
33 | QVQLVESGGGLVQAGGSLRLSCAASGRIFSRYAMGWYRQAPGKERELVATISSGGGTYYADSVKGRFTISRDNAKNTVYLQMNSLKPEDTAVYYCAAASYSGHGRYDDWGQGTQVPVSS | high polyreactivity
34 | QVQLVESGGGLVQAGGSLRLSCAASGRIFSRYAMGWYRQAPGKERELVATISSSRGGTSTNYADSVKGRFTISRDNAKNTVYLQMNSLKPEDTAVYYCNALYGRQIVDYDYWGQGTQVTVSS | low polyreactivity
35 | QVQLVESGGGLVQAGGSLRLSCAASGRIFSRYAMGWYRQAPGKERELVATITISGGSTYYADSVKGRFTISRDNAKNTVYLQMNSLKPEDTAVYYCAAETTASYYKRTDDYDYWGQGTQVTVSS | low polyreactivity
36 | QVQLVESGGGLVQAGGSLRLSCAASGRIFSRYAMGWYRQAPVKERELVADITYNGGSTYYADSVKGRFTISRDNAKHTVYLQMNSLQPDDTAVYYCNAVEVLDEGWGFWYYYWGQATQVTVSS | high polyreactivity
37 | QVQLVESGGGLVQAGGSLRLSCAASGRIFSRYTMVWYRQAPRKERELVAAISSSGGSTYYADSVKGRFTISRDNAKNTVYLQMNSLKQEDTAVYYCAARQYIGSPPHRRRFDYWGQGTQVTVSS | high polyreactivity
38 | QVQLVESGGGLVQAGGSLRLSCAASGRIFSSNAMGWYRQAPGKARELVAAISTSGSTKYADSVKGRFTSSRDNAKNTVYLLMNSLKPEDTAVYYCAAKGYEYRYRYDYWGQGTQVTVSW | high polyreactivity
39 | QVQLVESGGGLVQAGGSLRLSCAASGRIFSSYAMGWYRQAPGKERELVAAISSRGGSTYYADSVKGRFTISRDNAKNTVYLQMNSLKPEDTAVNYCAKGLTALGDYWGQCTQVTVSS | high polyreactivity
40 | QVQLVESGGGLVQAGGSLRLSCAASGRIFSSYAMGWYRQAPGKERELVASIDWSDGSTYYADSVKGRFTIARDNAKNTVYLQMTSLKPEDTAVYYCAADFVPYLIYGYWGQGTQVTVTS | low polyreactivity
41 | QVQLVESGGGLVQAGGSLRLSCAASGRIFSSYAMGWYRQEPGKERELVAVIRWSSGSTYYADSVKGRFTISRDNAKNTVYLQMNSLKPEDTAVYYCAALRRRSTKFEHDYWGQGTQVTVSS | high polyreactivity
42 | QVQLVESGGGLVQAGGSLRLSCAASGRIFSSYDMGWYRQAPGKERELDAAISSRTGITNYADSVKGRFTISRDNAKNTVYLQMNSLKPEDTAVYYCAKVGWYGYTRSYKYGYWGQGTQVTVSS | high polyreactivity
43 | QVQLVESGGGLVQAGGSLRLSCAASGRIFSTNAMGWYIQAPGKERELVAAISKNGGRTYYADSVKWRFTISRDNAKNTVYLQMNSLKPEDTAVYYCAAPVKPVTGYYPYDYWGQGTQVTVSS | high polyreactivity
